Experimental data reported in patent US20200317768A1 (published 2020).

Legend:
[1] = target: T1, cynomolgus monkey FcγRIIIaS extracellular domain, C-terminal His-tag (cynomolgus monkey, UniProt A3RFZ7 21-206 (rhesus entry)); experiment: SPR (Biacore), antibody captured, FcgR analyte, 25 C
T1 construct: also called cyno FcγRIIIaS; cynoFcγRIIIaS; not shown: His-tag added to C-terminus
Experimental: (§1) The kinetic analysis of interactions between these antibodies and FcγR was carried out using BIACORE® T200 or BIACORE® 4000 (GE Healthcare). HBS-EP+ (GE Healthcare) was used as the running buffer, and the measurement temperature was set to 25° C. A chip produced by immobilizing Protein A. Protein A/G or mouse anti-human IgG kappa light chain (BD Biosciences) onto a Series S Sensor Chip CM4 or CM5 (GE Healthcare) by the amine-coupling method was used. […] After the measurement, the antibody captured on the chip was washed off by allowing reaction with 10 mM glycine-HCl, pH1.5 and 25 mM NaOH so that the chip was regenerated and used repeatedly. The sensorgrams obtained as measurement results were analyzed by the 1:1 Langmuir binding model using the BIACORE® Evaluation Software to calculate the binding rate constant ka (L/mol/s) and dissociation rate constant kd (l/s), and the dissociation constant KD (mol/L) was calculated from these values. […] Regarding such interactions, KD values were calculated using the following 1:1 binding model described in BIACORE® T100 Software Handbook BR1006-48 Edition AE.
(§2) The behavior of interacting molecules according to the 1:1 binding model on BIACORE® can be described by Equation 1: Req=C·R max/(KD+C)+RI, wherein, Req is a plot of steady-state binding levels to analyte concentration. C is concentration, RI is bulk refractive index contribution in the sample, and Rmax is analyte binding capacity of the surface. When this equation is rearranged, KD can be expressed as Equation 2: KD=C·Rmax/(Req−RI)−C. KD can be calculated by substituting the values of Rmax, RI, and C into Equation 1 or Equation 2. From the current measurement conditions, RI=0, C=2 μmol/L can be used.

[2] = target: T2, human FcγRIIIaV extracellular domain, C-terminal His-tag (human, UniProt P08637 17-208); experiment: as above
T2 construct: also called FcgRIIIaV; not shown: His-tag added to C-terminus
Experimental: as §1, §2

[3] = target: T3, human FcγRIIaH extracellular domain, C-terminal His-tag (human, UniProt P12318 34-217); experiment: as above
T3 construct: also called human FcγRIIa (type H); FcgRIIaH; not shown: His-tag added to C-terminus
T3 sequence: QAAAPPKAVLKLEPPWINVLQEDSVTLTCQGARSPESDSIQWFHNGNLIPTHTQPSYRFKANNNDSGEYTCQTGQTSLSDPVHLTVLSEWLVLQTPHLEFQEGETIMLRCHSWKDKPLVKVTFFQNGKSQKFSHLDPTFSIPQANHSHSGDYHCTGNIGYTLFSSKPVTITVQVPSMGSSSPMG
Experimental: as §1, §2

[4] = target: T4, cynomolgus monkey FcγRIIa3 extracellular domain, C-terminal His-tag (cynomolgus monkey); experiment: as above
T4 construct: also called cyno FcγRIIa3; cynoFcgRIIa3; not shown: His-tag added to C-terminus
T4 chain: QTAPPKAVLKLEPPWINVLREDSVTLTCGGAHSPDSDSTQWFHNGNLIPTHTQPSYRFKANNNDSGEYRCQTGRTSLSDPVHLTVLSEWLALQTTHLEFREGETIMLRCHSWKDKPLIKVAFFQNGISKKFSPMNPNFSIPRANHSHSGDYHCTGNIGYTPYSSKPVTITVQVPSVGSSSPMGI
Experimental: as §1, §2

[5] = target: T5, cynomolgus monkey FcγRIIa1 extracellular domain, C-terminal His-tag (cynomolgus monkey); experiment: as above
T5 construct: also called cyno FcγRIIa1; cynoFcgRIIa1; not shown: His-tag added to C-terminus
T5 chain: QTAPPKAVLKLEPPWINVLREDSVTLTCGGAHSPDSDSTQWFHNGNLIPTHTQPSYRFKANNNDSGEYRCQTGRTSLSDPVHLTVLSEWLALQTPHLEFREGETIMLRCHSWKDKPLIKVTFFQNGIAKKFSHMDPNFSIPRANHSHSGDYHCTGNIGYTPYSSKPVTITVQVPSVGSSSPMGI
Experimental: as §1, §2

[6] = target: T6, human FcγRIIaR extracellular domain, C-terminal His-tag (human, UniProt P12318 34-217); experiment: as above
T6 construct: also called human FcγRIIa (type R); FcgRIIaR; not shown: His-tag added to C-terminus
T6 chain: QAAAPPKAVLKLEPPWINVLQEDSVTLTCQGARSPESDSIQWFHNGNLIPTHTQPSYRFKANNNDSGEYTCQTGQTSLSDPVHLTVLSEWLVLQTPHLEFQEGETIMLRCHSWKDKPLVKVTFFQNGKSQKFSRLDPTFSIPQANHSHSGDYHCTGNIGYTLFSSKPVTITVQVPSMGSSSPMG
Experimental: as §1, §2

[7] = target: T7, human FcγRIIb extracellular domain, C-terminal His-tag (human, UniProt P31994 43-217); experiment: as above
T7 construct: also called FcgRIIb (human); not shown: His-tag added to C-terminus
T7 sequence: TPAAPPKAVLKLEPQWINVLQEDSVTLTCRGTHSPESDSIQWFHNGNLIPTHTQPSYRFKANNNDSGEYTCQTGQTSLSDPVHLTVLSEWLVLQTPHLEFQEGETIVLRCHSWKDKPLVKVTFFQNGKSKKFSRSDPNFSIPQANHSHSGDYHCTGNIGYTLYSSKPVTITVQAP
Experimental: as §1, §2

[8] = target: T1, cynomolgus monkey FcγRIIIaS …; experiment: SPR (Biacore), KD of SG1 / KD of variant;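 note: relative to parent M103205H795-SG1 carrying the SG1 human heavy chain constant region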
Experimental: as §1, §2

[9] = target: T2, human FcγRIIIaV extracellular domain, …; experiment: SPR (Biacore), KD of SG1 / KD of variant;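 note: relative to parent M103205H795-SG1 carrying the SG1 human heavy chain constant region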
Experimental: as §1, §2

[10] = target: T3, human FcγRIIaH extracellular domain, …; experiment: SPR (Biacore), KD of SG1 / KD of variant;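 note: relative to parent M103205H795-SG1 carrying the SG1 human heavy chain constant region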
Experimental: as §1, §2

[11] = target: T4, cynomolgus monkey FcγRIIa3 …; experiment: SPR (Biacore), KD of SG1 / KD of variant;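 note: relative to parent M103205H795-SG1 carrying the SG1 human heavy chain constant region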
Experimental: as §1, §2

[12] = target: T8, cynomolgus monkey FcγRIIa2 extracellular domain, C-terminal His-tag (cynomolgus monkey); experiment: SPR (Biacore), KD of SG1 / KD of variant
T8 construct: also called cyno FcγRIIa2; cynoFcgRIIa2; not shown: His-tag added to C-terminus
T8 chain: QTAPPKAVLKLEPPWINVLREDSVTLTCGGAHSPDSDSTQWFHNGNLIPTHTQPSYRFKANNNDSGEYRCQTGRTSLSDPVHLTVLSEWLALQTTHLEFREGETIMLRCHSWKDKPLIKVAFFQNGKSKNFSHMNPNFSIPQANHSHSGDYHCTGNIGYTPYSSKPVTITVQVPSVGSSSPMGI
Experimental: as §1, §2

[13] = target: T5, cynomolgus monkey FcγRIIa1 …; experiment: SPR (Biacore), KD of SG1 / KD of variant
Experimental: as §1, §2

[14] = target: T6, human FcγRIIaR extracellular domain, …; experiment: SPR (Biacore), KD of SG1 / KD of variant
Experimental: as §1, §2

[15] = target: T7, human FcγRIIb extracellular domain, …; experiment: SPR (Biacore), KD of SG1 / KD of variant
Experimental: as §1, §2

T1 sequence (A3RFZ7 21-206): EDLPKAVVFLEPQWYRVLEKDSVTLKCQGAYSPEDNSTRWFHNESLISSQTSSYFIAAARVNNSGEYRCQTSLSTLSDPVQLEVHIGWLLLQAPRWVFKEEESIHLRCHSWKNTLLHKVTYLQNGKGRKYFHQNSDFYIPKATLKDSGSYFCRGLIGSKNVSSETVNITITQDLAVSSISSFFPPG
T2 sequence (P08637 17-208 F176V): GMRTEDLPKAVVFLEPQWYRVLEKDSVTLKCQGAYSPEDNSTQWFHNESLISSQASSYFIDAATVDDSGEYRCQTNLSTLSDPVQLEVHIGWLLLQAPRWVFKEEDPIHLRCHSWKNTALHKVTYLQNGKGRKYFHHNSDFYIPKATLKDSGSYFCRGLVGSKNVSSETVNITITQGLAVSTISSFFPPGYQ

Kd [1]: 2.4 µM
Kd [2]: 17 µM
Kd [3]: 0.44 µM
Kd [4]: 22 µM
Kd [5]: 5.1 µM
Kd [6]: 1.1 µM
Kd [7]: 4 µM
KD fold (SG1 = 1) [8]: 0.15 fold
KD fold (SG1 = 1) [9]: 0.05 fold
KD fold (SG1 = 1) [10]: 1.6 fold
KD fold (SG1 = 1) [11]: 0.6 fold
KD fold (SG1 = 1) [12]: 0.6 fold
KD fold (SG1 = 1) [13]: 0.6 fold
KD fold (SG1 = 1) [14]: 1.1 fold
KD fold (SG1 = 1) [15]: 1.2 fold
B1: M103205H795-MY316/M103202L889-SK1 (antibody, human IgG1, kappa)
heavy: QVTLKESGPVLVKPTETLTLTCTVSGIDLSHDDISWVRQAPGKGLEWVGIISYAGSTYYASWAKGRLTISKDTSKNQVVLTMTNMDPVDTATYYCARGVPAYSHGGDLWGQGTLVTVSSASTKGPSVFPLAPSSKSTSGGTAALGCLVKDYFPEPVTVSWNSGALTSGVHTFPAVLQSSGLYSLSSVVTVPSSSLGTQTYICNVNHKPSNTKVDKKVEPKSCDKTHTCPPCPAPELLLGPSVFLFPPKPKDTLMISRTPEVTCVVVDVSEEDPEVKFNWYVDGVEVHNAKTKPREELYNSTYRVVSVLTVLHQDWLNGKEYKCKVSNKALPKPIEKTISKAKGQPREPQVYTLPPSREEMTKNQVSLTCLVKGFYPSDIAVEWESNGQPENNYKTTPKVLDSDGSFFLYSKLTVDKSRWQQGNVFSCSVMHEALHNHYTQKSLSLSP
light: DIVMTQSPATLSLSPGERATLSCTSSQSVYHANWLSWFQQKPGQPPKLLIYWASTLAYGVPSRFSGSGSGTDFTLTISSLQPEDAATYYCAGGYGGGRYAFGQGTKVEIKRTVAAPSVFIFPPSDEQLKSGTASVVCLLNNFYPREAKVQWKVDNALQSGNSQESVTEQDSKDSTYSLSSTLTLSKADYEKHKVYACEVTHQGLSSPVTKSFNRGEC
